From patent US20260125457A1 (Janssen / Centocor, published 2026)
Changes are numbered by the printed parent chain.

T1: 22 amino acid CALRmut-specific peptide (acetylation of the terminal amino-group; C-terminal -OH group)
T1 construct: also called 22aa CALRmut peptide; CALRmut target peptide
T1 peptide: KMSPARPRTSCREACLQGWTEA

B1: CALRB118 (MP1016C Fab x CD3W245-HL-scFv, high affinity) (bispecific antibody, part only; not given: CD3 scFv arm and IgG1 constant regions, V domains shown, not shown: another chain or arm of the molecule; a dimerising Fc or GST; small tags and cut ends)
VL: DPVLTQTESPVSAAVGGTVTINCQASQSVYDDNNLAWYQQKPGQPPKRLIYPASTLASGVSSRFSGSGSGSQFTLTISDVQSDDAATYYCQGEFSCTSADCVAFGGGTEVVVK
VH: QEQLKESGGRLVTPGTPLTLTCTASGFSLSNYYMSWVRQAPGKGLEWIGGISSRAGTWYASWAKGRFTISGTSSTTMDLKITSPTTEDTATYFCARGLKIWGPGTLVTVSS
B2: CALRB79 (MP1016 Fab x CD3W245-LH-scFv, medium affinity) (bispecific antibody, part only; not given: anti-CD3 scFv arm, constant regions, V domains shown, not shown: another chain or arm of the molecule; a dimerising Fc or GST; small tags and cut ends)
VL: B1 VL
VH: QEQLKESGGRLVTPGTPLTLTCTASGFSLSNYYMSWVRQAPGKGLEWIGGISSRAGTWYASWAKGRFTISGTSTTMDLKITSPTTEDTATYFCARGLKIWGPGTLVTVSS
B3: CALRB119 (MP1016 Fab x CD3W245-HL-scFv, high affinity) (bispecific antibody, part only; not given: anti-CD3 scFv arm, constant regions, V domains shown, not shown: another chain or arm of the molecule; a dimerising Fc or GST; small tags and cut ends)
VL: B1 VL
VH: B2 VH
B4: CALRB78 (MP1016C Fab x CD3W245-LH-scFv, medium affinity) (bispecific antibody, part only; not given: anti-CD3 scFv arm, constant regions, V domains shown, not shown: another chain or arm of the molecule; a dimerising Fc or GST; small tags and cut ends)
VL: B1 VL
VH: B1 VH
B5: Clone 7 (Fab, V domains shown)
VH: QQLEESGGRLVAPGTPLRLTCTVSGIDLSNNAVSWVRQAPGKGLEYIGVIGNTGTTYYANWAKGRFTISKTSSTTVDLKMTSLTTDDTATYFCVRGPPSYSNSVRNIWGPGTLVTVSS
VL: DPMLTQTPSSVSAAVGGTVTIGCQSSQSVYDNNWLSWYQQKPGQPPNRLIYDASKLASGVPSRFSGSGSGTQFTLTISGVKCDDAATYYCAGGYTGNVYSFGGGTMVEIK
notes: Rabbit/human chimeric Fab (human CH1, CK) on phage; also soluble Fab-AP
B6: CALRB75 (MP1004 Fab x CD3W245-LH-scFv, medium affinity) (bispecific antibody, part only; not given: CD3 scFv arm and IgG1 constant regions, V domains shown, not shown: another chain or arm of the molecule; a dimerising Fc or GST; small tags and cut ends)
VL: DPMLTQTPSSVSAAVGGTVTINCQSSQSVYNNNWLSWLQQKPGQPPNRLIYDASKLESGVPSRFSGSGSGTQFTLTISGVQSDDAATYYCAGGFTGNVYTFGGGTEVVVK
VH: QEQLEESGGRLVTPGTPLTLTCKVSGIDLSNNAISWVRQAPGKGLEYIGVIGNTGDTYYASWAKGRFTISKTSSTTVDLKMTSLTTEDTATYFCVRGPPSYSNSVKNIWGPGTLVTISS
B7: CALRB76 (MP1007 Fab x CD3W245-LH-scFv, medium affinity) (bispecific antibody, part only; not given: CD3 scFv arm and IgG1 constant regions, V domains shown, not shown: another chain or arm of the molecule; a dimerising Fc or GST; small tags and cut ends)
VL: B5 VL with C82S
VH: B5 VH
B8: CALRB115 (MP1004 Fab x CD3W245-HL-scFv, high affinity) (bispecific antibody, part only; not given: anti-CD3 scFv arm, constant regions, V domains shown, not shown: another chain or arm of the molecule; a dimerising Fc or GST; small tags and cut ends)
VH: B6 VH
VL: B6 VL
B9: CALRB77 (MP1010 Fab x CD3W245-LH-scFv, medium affinity) (bispecific antibody, part only; not given: anti-CD3 scFv arm, constant regions, V domains shown, not shown: another chain or arm of the molecule; a dimerising Fc or GST; small tags and cut ends)
VL: B6 VL with N22G, N31D, N32K, L38Y, N47S, A85V, T100A
VH: B5 VH with Q2S, L3V, A12T, R18T, V33I, T55D, N60S, D86E, R105K, V116I
B10: CALRB117 (MP1010 Fab x CD3W245-HL-scFv, high affinity) (bispecific antibody, part only; not given: anti-CD3 scFv arm, constant regions, V domains shown, not shown: another chain or arm of the molecule; a dimerising Fc or GST; small tags and cut ends)
VH: B5 VH with Q2S, L3V, A12T, R18T, V33I, T55D, N60S, D86E, R105K, V116I
VL: B6 VL with N22G, N31D, N32K, L38Y, N47S, A85V, T100A
B11: Clone 22 (Fab, V domains shown)
VH: QQLEESGGRLVTPGTPLTLTCTVSGIDLSNNAMSWVRQAPGKGLEYIGVIGNTGTTYYASWAKGRFTISKTSSTTVDLKMTSLTTEDTATYFCVRGPPSYSNSVKNIWGPGTLVTIS
VL: B6 VL with M3V, S82C
notes: as for B5
B12: Clone 5 (Fab, V domains shown)
VH: B6 VH with E5K, T13A, T19R, K23T, I34V, D56T, S73T, E87D, I117V
VL: B6 VL with M3V, N22G, N31D, N32K, L38Y, N47S, S82C, T100G
notes: Rabbit/human chimeric Fab on phage; also Fab-AP
B13: CALRB116 (MP1007 Fab x CD3W245-HL-scFv, high affinity) (bispecific antibody, part only; not given: anti-CD3 scFv arm, constant regions, V domains shown, not shown: another chain or arm of the molecule; a dimerising Fc or GST; small tags and cut ends)
VH: B5 VH
VL: B5 VL with C82S
B14: Clone 11 (Fab, V domains shown)
VH: B6 VH with E5K, T13A, T19R, K23T, I34V, D56T, S61N, E87D, I117V
VL: B6 VL with S10P, S25A, S36T, L38Y, E57A, S69F, S82C, G92A, F94W, T100S
notes: as for B5
B15: Clone 15 (Fab, V domains shown)
VH: B5 VH with A12T, R18T, V33I, N60S, T85A, D86S, R105K, V116I
VL: B6 VL with P2V, M3V, L4M, S82C
notes: as for B5
B16: Clone 21 (Fab, V domains shown)
VH: B6 VH with E5K, T13A, T19R, K23T, I34V, D56T, S61N, E87D
VL: B5 VL with P2V, M3V, L4M, N32K, N47S, A57E, K81Q, Y94F, S100A
notes: as for B5
B17: Clone 3 (Fab, V domains shown)
VH: B6 VH with E5K, T13A, T19R, K23R, I34V, D56S, S61N, T86A, E87D, I117V
VL: B6 VL with N22G, N31D, N32K, L38Y, N47S, S82C, T100A
notes: as for B5
B18: CALRB114 (MP1001 Fab x CD3W245-HL-scFv, high affinity) (bispecific antibody, part only; not given: CD3 scFv arm and IgG1 constant regions, V domains shown, not shown: another chain or arm of the molecule; a dimerising Fc or GST; small tags and cut ends)
VH: QEQLKESGGRLVTPGTPLTLTCAVSGFSLDIYGMSWVRQAPGKGLEWIGIIYIEGITYYANWAKGRFTISKTSSTTLELKMTSLTTEDTAMYFCVAGVGRIWGPGTLVTVSS
VL: YVMMTQTPSSVSAAVGGTVTINCQASQSLYNNNNLAWFQQKPGQPPKRLIYPASTLASGVSSRFKGSGSGTQFTLTISDVQSDDAATYFCLGEFSCSSADCYAFGGGTEVVVK
B19: CALRB74 (MP1001 Fab x CD3W245-LH-scFv, medium affinity) (bispecific antibody, part only; not given: CD3 scFv arm and IgG1 constant regions, V domains shown, not shown: another chain or arm of the molecule; a dimerising Fc or GST; small tags and cut ends)
VL: B18 VL
VH: B18 VH
B20: CALRB120 (MP1018C Fab x CD3W245-HL-scFv, high affinity) (bispecific antibody, part only; not given: CD3 scFv arm and IgG1 constant regions, V domains shown, not shown: another chain or arm of the molecule; a dimerising Fc or GST; small tags and cut ends)
VL: DVVMTQTPSSVSAAVGGTVTINCQASQSLYNNKNLAWYQQKPGQPPKLLIYYASALASGVSSRFKGSGSGTQFTLTISGVQSDDAATYYCQGEFNCNSADCNSFGGGTEVVVK
VH: QSVEESGGRLVTPGTPLTITCTVSGFSLSSYAMSWVRQAPGKGLEWIGVIDSGGTTYYATWAKSRFTISKTSSTKVALKITSPTTEDTATYFCARESYAGYDGYGHPIPYGMDPWGPGTLVTVSS
B21: CALRB81 (MP1018 Fab x CD3W245-LH-scFv, medium affinity) (bispecific antibody, part only; not given: anti-CD3 scFv arm, constant regions, V domains shown, not shown: another chain or arm of the molecule; a dimerising Fc or GST; small tags and cut ends)
VL: B20 VL
VH: QSVEESGGRLVTPGTPLTITCTVSGFSLSSYAMSWVRQAPGKGLEWIGVIDSGGTTYYATWAKSRFTISKTTKVALKITSPTTEDTATYFCARESYAGYDGYGHPIPYGMDPWGPGTLVTVSS
B22: CALRB80 (MP1018C Fab x CD3W245-LH-scFv, medium affinity) (bispecific antibody, part only; not given: CD3 scFv arm and IgG1 constant regions, V domains shown, not shown: another chain or arm of the molecule; a dimerising Fc or GST; small tags and cut ends)
VL: B20 VL
VH: B20 VH

Legend:
[1] = target: CALRins5 (mutant calreticulin, 5 base pair insertion, Type 2) expressed with MPL on engineered cancer cells (UniProt P27797); experiment: cell-based or functional assay
Chain of CALRins5 (mutant calreticulin, 5 base pair insertion, Type 2) expressed with MPL on engineered cancer cells (P27797 other isoform, or with tags, fused parts or gaps mutant limits assumed): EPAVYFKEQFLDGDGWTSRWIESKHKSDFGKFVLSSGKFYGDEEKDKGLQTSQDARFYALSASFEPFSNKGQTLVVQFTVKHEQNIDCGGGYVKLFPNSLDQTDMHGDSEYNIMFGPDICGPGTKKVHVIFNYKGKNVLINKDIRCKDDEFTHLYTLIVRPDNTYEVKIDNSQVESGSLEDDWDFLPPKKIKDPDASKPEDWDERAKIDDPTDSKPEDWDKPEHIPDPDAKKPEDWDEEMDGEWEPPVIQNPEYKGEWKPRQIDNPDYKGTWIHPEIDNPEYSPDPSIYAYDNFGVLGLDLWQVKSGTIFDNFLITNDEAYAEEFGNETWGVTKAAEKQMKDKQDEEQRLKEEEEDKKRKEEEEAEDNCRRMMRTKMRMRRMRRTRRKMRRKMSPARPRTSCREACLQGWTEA

[2] = target: CALRdel52 (mutant calreticulin, 52 base pair deletion, Type 1) expressed with MPL on engineered cancer cells (UniProt P27797); experiment: cell-based or functional assay
Chain of CALRdel52 (mutant calreticulin, 52 base pair deletion, Type 1) expressed with MPL on engineered cancer cells (P27797 other isoform, or with tags, fused parts or gaps mutant limits assumed): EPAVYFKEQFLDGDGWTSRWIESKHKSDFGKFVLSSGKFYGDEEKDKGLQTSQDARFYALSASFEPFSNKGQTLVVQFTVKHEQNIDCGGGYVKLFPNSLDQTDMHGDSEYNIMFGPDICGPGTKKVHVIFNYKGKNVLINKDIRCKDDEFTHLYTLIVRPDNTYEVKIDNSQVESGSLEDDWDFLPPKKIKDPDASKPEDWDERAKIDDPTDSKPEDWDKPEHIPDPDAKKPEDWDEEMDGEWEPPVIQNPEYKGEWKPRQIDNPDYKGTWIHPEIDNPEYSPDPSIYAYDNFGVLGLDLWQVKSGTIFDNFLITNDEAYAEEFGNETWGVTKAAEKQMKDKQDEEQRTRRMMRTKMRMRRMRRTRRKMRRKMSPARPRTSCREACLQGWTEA

[3] = target: T1, 22 amino acid CALRmut-specific peptide; experiment: phage ELISA; QC ELISA of soluble Fab-AP

Row | Binder | Cytotoxicity EC50, K562 MPL CALRins5 cells [1] | Cytotoxicity EC50, OCI-M2 MPL CALRins5 cells [1] | Cytotoxicity EC50, K562 MPL CALRdel52 cells [2] | Cytotoxicity EC50, OCI-M2 MPL CALRdel52 cells [2] | binding result [3]
1 | B1 | 0.0157 µg/mL | 0.0136 µg/mL | 0.0099 µg/mL | 0.505 µg/mL | –
2 | B2 | 0.0416 µg/mL | 0.0911 µg/mL | 0.0444 µg/mL | 0.112 µg/mL | –
3 | B3 | 0.0104 µg/mL | 0.0225 µg/mL | 0.0064 µg/mL | 0.504 µg/mL | –
4 | B4 | 0.0648 µg/mL | 0.0792 µg/mL | 0.0393 µg/mL | 0.0581 µg/mL | –
5 | B5 | – | – | – | – | binds
6 | B6 | 0.116 µg/mL | 0.129 µg/mL | 0.193 µg/mL | 0.115 µg/mL | –
7 | B7 | 0.107 µg/mL | 0.189 µg/mL | 0.0633 µg/mL | 0.0897 µg/mL | –
8 | B8 | 0.0541 µg/mL | 0.0431 µg/mL | 0.0348 µg/mL | 0.0508 µg/mL | –
9 | B9 | 0.414 µg/mL | 0.189 µg/mL | 0.195 µg/mL | 0.183 µg/mL | –
10 | B10 | 0.0741 µg/mL | 0.0481 µg/mL | 0.0403 µg/mL | 0.0598 µg/mL | –
11 | B11 | – | – | – | – | binds
12 | B12 | – | – | – | – | binds
13 | B13 | 0.0953 µg/mL | 0.0392 µg/mL | 0.0243 µg/mL | 0.0802 µg/mL | –
14 | B14 | – | – | – | – | binds
15 | B15 | – | – | – | – | binds
16 | B16 | – | – | – | – | binds
17 | B17 | – | – | – | – | binds
18 | B18 | 0.0163 µg/mL | 0.0235 µg/mL | 0.0112 µg/mL | 0.0168 µg/mL | –
19 | B19 | 0.0304 µg/mL | 0.0322 µg/mL | 0.0521 µg/mL | 0.0253 µg/mL | –
20 | B20 | 0.0119 µg/mL | 0.0145 µg/mL | 0.0077 µg/mL | 0.0091 µg/mL | –
21 | B21 | 0.0509 µg/mL | 0.0171 µg/mL | 0.0457 µg/mL | 0.0196 µg/mL | –
22 | B22 | 0.0434 µg/mL | 0.0212 µg/mL | 0.0401 µg/mL | 0.0205 µg/mL | –
